Source: patent publication US7657380

T1: human CD30 (commercial, conjugated to digoxigenin) (human, UniProt P28908 19-379, limits assumed, conjugated to digoxigenin (DIG))
T1 sequence (looked up): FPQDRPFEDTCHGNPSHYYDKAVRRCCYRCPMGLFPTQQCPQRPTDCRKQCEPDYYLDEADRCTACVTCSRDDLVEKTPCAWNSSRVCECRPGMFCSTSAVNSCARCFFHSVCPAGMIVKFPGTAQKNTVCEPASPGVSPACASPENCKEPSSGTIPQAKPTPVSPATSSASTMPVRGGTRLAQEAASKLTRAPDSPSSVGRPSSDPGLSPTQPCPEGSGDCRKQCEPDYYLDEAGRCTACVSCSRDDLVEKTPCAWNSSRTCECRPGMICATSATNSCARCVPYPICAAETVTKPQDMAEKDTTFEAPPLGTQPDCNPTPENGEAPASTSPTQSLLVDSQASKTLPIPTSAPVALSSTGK


Target: T1, human CD30 (commercial, conjugated to …)
Assay: AlphaScreen competition

Row | Binder | Fold IC50 vs H3/L3
1 | AC10 H3.1/L3 (antibody, IgG1, name in Kabat numbering, V domains shown) VH: EIQLVQSGPEVKKPGASVKVSCKASGYTFTDYYITWVRQAPGQGLEWMGWIYPGSGNTKYNEKFQGRFVFSVDTSASTAYLQISSLKAEDTAVYFCANYGNYWFAYWGQGTLVTVSS VL: DIVLTQSPDSLAVSLGERATINCKASQSVDFDGDSYMNWYQQKPGQPPKVLIYAASNLESGIPARFSGSGSGTDFTLTINSLEAEDAATYYCQQSNEDPWTFGGGTKVEIK | 1 fold
2 | AC10 H3.11/L3 (antibody, IgG1, name in Kabat numbering, V domains shown) VH: QIQLVQSGPEVKKPGASVKVSCKASGYTFTDYGITWVRQAPGQGLEWMGWIYPGSGNTKYNEKFQGRFVFSVDTSASTAYLQISSLKAEDTAVYFCANYGNYWFAYWGQGTLVTVSS VL: DIVLTQSPDSLAVSLGERATINCKASQSVDFDGDSYMNWYQQKPGQPPKVLIYAASNLESGIPARFSGSGSGTDFTLTINSLEAEDAATYYCQQSNEDPWTFGGGTKVEIK | 0.73 fold
3 | AC10 H3.6/L3 (antibody, IgG1, name in Kabat numbering, V domains shown) VH: QIQLVQSGPEVKKPGTSVKVSCKASGYTFTDYYITWVRQAPGQGLEWMGWIYPGSGNTKYNEKFQGRFVFSVDTSASTAYLQISSLKAEDTAVYFCANYGNYWFAYWGQGTLVTVSS VL: DIVLTQSPDSLAVSLGERATINCKASQSVDFDGDSYMNWYQQKPGQPPKVLIYAASNLESGIPARFSGSGSGTDFTLTINSLEAEDAATYYCQQSNEDPWTFGGGTKVEIK | 1.13 fold
4 | AC10 H3.21/L3 (antibody, IgG1, name in Kabat numbering, V domains shown) VH: QIQLVQSGPEVKKPGASVKVSCKASGYTFTDYYITWVRQAPGQRLEWMGWIYPGSGNTKYNEKFQGRFVFSVDTSASTAYLQISSLKAEDTAVYFCANYGNYWFAYWGQGTLVTVSS VL: DIVLTQSPDSLAVSLGERATINCKASQSVDFDGDSYMNWYQQKPGQPPKVLIYAASNLESGIPARFSGSGSGTDFTLTINSLEAEDAATYYCQQSNEDPWTFGGGTKVEIK | 2.6 fold
5 | AC10 H3.18/L3 (antibody, IgG1, name in Kabat numbering, V domains shown) VH: QIQLVQSGPEVKKPGASVKVSCKASGYTFTDYYINWVRQAPGQGLEWMGWIYPGSGNTKYNEKFQGRFVFSVDTSASTAYLQISSLKAEDTAVYFCANYGNYWFAYWGQGTLVTVSS VL: DIVLTQSPDSLAVSLGERATINCKASQSVDFDGDSYMNWYQQKPGQPPKVLIYAASNLESGIPARFSGSGSGTDFTLTINSLEAEDAATYYCQQSNEDPWTFGGGTKVEIK | 0.13 fold
6 | AC10 H3.2/L3 (antibody, IgG1, name in Kabat numbering, V domains shown) VH: QLQLVQSGPEVKKPGASVKVSCKASGYTFTDYYITWVRQAPGQGLEWMGWIYPGSGNTKYNEKFQGRFVFSVDTSASTAYLQISSLKAEDTAVYFCANYGNYWFAYWGQGTLVTVSS VL: DIVLTQSPDSLAVSLGERATINCKASQSVDFDGDSYMNWYQQKPGQPPKVLIYAASNLESGIPARFSGSGSGTDFTLTINSLEAEDAATYYCQQSNEDPWTFGGGTKVEIK | 2.76 fold
7 | AC10 H3.12/L3 (antibody, IgG1, name in Kabat numbering, V domains shown) VH: QIQLVQSGPEVKKPGASVKVSCKASGYTFTDYWITWVRQAPGQGLEWMGWIYPGSGNTKYNEKFQGRFVFSVDTSASTAYLQISSLKAEDTAVYFCANYGNYWFAYWGQGTLVTVSS VL: DIVLTQSPDSLAVSLGERATINCKASQSVDFDGDSYMNWYQQKPGQPPKVLIYAASNLESGIPARFSGSGSGTDFTLTINSLEAEDAATYYCQQSNEDPWTFGGGTKVEIK | 0 fold
8 | AC10 H3.20/L3 (antibody, IgG1, name in Kabat numbering, V domains shown) VH: QIQLVQSGPEVKKPGASVKVSCKASGYTFTDYYITWVRQAPGQALEWMGWIYPGSGNTKYNEKFQGRFVFSVDTSASTAYLQISSLKAEDTAVYFCANYGNYWFAYWGQGTLVTVSS VL: DIVLTQSPDSLAVSLGERATINCKASQSVDFDGDSYMNWYQQKPGQPPKVLIYAASNLESGIPARFSGSGSGTDFTLTINSLEAEDAATYYCQQSNEDPWTFGGGTKVEIK | 2.04 fold
9 | AC10 H3.5/L3 (antibody, IgG1, name in Kabat numbering, V domains shown) VH: QIQLVQSGAEVKKPGASVKVSCKASGYTFTDYYITWVRQAPGQGLEWMGWIYPGSGNTKYNEKFQGRFVFSVDTSASTAYLQISSLKAEDTAVYFCANYGNYWFAYWGQGTLVTVSS VL: DIVLTQSPDSLAVSLGERATINCKASQSVDFDGDSYMNWYQQKPGQPPKVLIYAASNLESGIPARFSGSGSGTDFTLTINSLEAEDAATYYCQQSNEDPWTFGGGTKVEIK | 1.29 fold
10 | AC10 H3.9/L3 (antibody, IgG1, name in Kabat numbering, V domains shown) VH: QIQLVQSGPEVKKPGASVKVSCKASGYTFTSYYITWVRQAPGQGLEWMGWIYPGSGNTKYNEKFQGRFVFSVDTSASTAYLQISSLKAEDTAVYFCANYGNYWFAYWGQGTLVTVSS VL: DIVLTQSPDSLAVSLGERATINCKASQSVDFDGDSYMNWYQQKPGQPPKVLIYAASNLESGIPARFSGSGSGTDFTLTINSLEAEDAATYYCQQSNEDPWTFGGGTKVEIK | 1.65 fold
11 | AC10 H3.14/L3 (antibody, IgG1, name in Kabat numbering, V domains shown) VH: QIQLVQSGPEVKKPGASVKVSCKASGYTFTDYYMTWVRQAPGQGLEWMGWIYPGSGNTKYNEKFQGRFVFSVDTSASTAYLQISSLKAEDTAVYFCANYGNYWFAYWGQGTLVTVSS VL: DIVLTQSPDSLAVSLGERATINCKASQSVDFDGDSYMNWYQQKPGQPPKVLIYAASNLESGIPARFSGSGSGTDFTLTINSLEAEDAATYYCQQSNEDPWTFGGGTKVEIK | 1.62 fold
12 | AC10 H3.7/L3 (antibody, IgG1, name in Kabat numbering, V domains shown) VH: QIQLVQSGPEVKKPGASVKVSCKVSGYTFTDYYITWVRQAPGQGLEWMGWIYPGSGNTKYNEKFQGRFVFSVDTSASTAYLQISSLKAEDTAVYFCANYGNYWFAYWGQGTLVTVSS VL: DIVLTQSPDSLAVSLGERATINCKASQSVDFDGDSYMNWYQQKPGQPPKVLIYAASNLESGIPARFSGSGSGTDFTLTINSLEAEDAATYYCQQSNEDPWTFGGGTKVEIK | 4.45 fold
13 | AC10 H3.22/L3 (antibody, IgG1, name in Kabat numbering, V domains shown) VH: QIQLVQSGPEVKKPGASVKVSCKASGYTFTDYYITWVRQAPGQGLEWMGIIYPGSGNTKYNEKFQGRFVFSVDTSASTAYLQISSLKAEDTAVYFCANYGNYWFAYWGQGTLVTVSS VL: DIVLTQSPDSLAVSLGERATINCKASQSVDFDGDSYMNWYQQKPGQPPKVLIYAASNLESGIPARFSGSGSGTDFTLTINSLEAEDAATYYCQQSNEDPWTFGGGTKVEIK | 0.01 fold
14 | AC10 H3.23/L3 (antibody, IgG1, name in Kabat numbering, V domains shown) VH: QIQLVQSGPEVKKPGASVKVSCKASGYTFTDYYITWVRQAPGQGLEWMGRIYPGSGNTKYNEKFQGRFVFSVDTSASTAYLQISSLKAEDTAVYFCANYGNYWFAYWGQGTLVTVSS VL: DIVLTQSPDSLAVSLGERATINCKASQSVDFDGDSYMNWYQQKPGQPPKVLIYAASNLESGIPARFSGSGSGTDFTLTINSLEAEDAATYYCQQSNEDPWTFGGGTKVEIK | 0.16 fold
15 | AC10 H3.8/L3 (antibody, IgG1, name in Kabat numbering, V domains shown) VH: QIQLVQSGPEVKKPGASVKVSCKASGYTFTGYYITWVRQAPGQGLEWMGWIYPGSGNTKYNEKFQGRFVFSVDTSASTAYLQISSLKAEDTAVYFCANYGNYWFAYWGQGTLVTVSS VL: DIVLTQSPDSLAVSLGERATINCKASQSVDFDGDSYMNWYQQKPGQPPKVLIYAASNLESGIPARFSGSGSGTDFTLTINSLEAEDAATYYCQQSNEDPWTFGGGTKVEIK | 1.4 fold
16 | AC10 H3.16/L3 (antibody, IgG1, name in Kabat numbering, V domains shown) VH: QIQLVQSGPEVKKPGASVKVSCKASGYTFTDYYIGWVRQAPGQGLEWMGWIYPGSGNTKYNEKFQGRFVFSVDTSASTAYLQISSLKAEDTAVYFCANYGNYWFAYWGQGTLVTVSS VL: DIVLTQSPDSLAVSLGERATINCKASQSVDFDGDSYMNWYQQKPGQPPKVLIYAASNLESGIPARFSGSGSGTDFTLTINSLEAEDAATYYCQQSNEDPWTFGGGTKVEIK | 0.15 fold
17 | AC10 H3.19/L3 (antibody, IgG1, name in Kabat numbering, V domains shown) VH: QIQLVQSGPEVKKPGASVKVSCKASGYTFTDYYISWVRQAPGQGLEWMGWIYPGSGNTKYNEKFQGRFVFSVDTSASTAYLQISSLKAEDTAVYFCANYGNYWFAYWGQGTLVTVSS VL: DIVLTQSPDSLAVSLGERATINCKASQSVDFDGDSYMNWYQQKPGQPPKVLIYAASNLESGIPARFSGSGSGTDFTLTINSLEAEDAATYYCQQSNEDPWTFGGGTKVEIK | 1.11 fold
18 | AC10 H3.4/L3 (antibody, IgG1, name in Kabat numbering, V domains shown) VH: QVQLVQSGPEVKKPGASVKVSCKASGYTFTDYYITWVRQAPGQGLEWMGWIYPGSGNTKYNEKFQGRFVFSVDTSASTAYLQISSLKAEDTAVYFCANYGNYWFAYWGQGTLVTVSS VL: DIVLTQSPDSLAVSLGERATINCKASQSVDFDGDSYMNWYQQKPGQPPKVLIYAASNLESGIPARFSGSGSGTDFTLTINSLEAEDAATYYCQQSNEDPWTFGGGTKVEIK | 1.28 fold
19 | AC10 H3.3/L3 (antibody, IgG1, name in Kabat numbering, V domains shown) VH: QMQLVQSGPEVKKPGASVKVSCKASGYTFTDYYITWVRQAPGQGLEWMGWIYPGSGNTKYNEKFQGRFVFSVDTSASTAYLQISSLKAEDTAVYFCANYGNYWFAYWGQGTLVTVSS VL: DIVLTQSPDSLAVSLGERATINCKASQSVDFDGDSYMNWYQQKPGQPPKVLIYAASNLESGIPARFSGSGSGTDFTLTINSLEAEDAATYYCQQSNEDPWTFGGGTKVEIK | 0.68 fold
20 | AC10 H3.13/L3 (antibody, IgG1, name in Kabat numbering, V domains shown) VH: QIQLVQSGPEVKKPGASVKVSCKASGYTFTDYYLTWVRQAPGQGLEWMGWIYPGSGNTKYNEKFQGRFVFSVDTSASTAYLQISSLKAEDTAVYFCANYGNYWFAYWGQGTLVTVSS VL: DIVLTQSPDSLAVSLGERATINCKASQSVDFDGDSYMNWYQQKPGQPPKVLIYAASNLESGIPARFSGSGSGTDFTLTINSLEAEDAATYYCQQSNEDPWTFGGGTKVEIK | 1.52 fold
21 | AC10 H3.17/L3 (antibody, IgG1, name in Kabat numbering, V domains shown) VH: QIQLVQSGPEVKKPGASVKVSCKASGYTFTDYYIHWVRQAPGQGLEWMGWIYPGSGNTKYNEKFQGRFVFSVDTSASTAYLQISSLKAEDTAVYFCANYGNYWFAYWGQGTLVTVSS VL: DIVLTQSPDSLAVSLGERATINCKASQSVDFDGDSYMNWYQQKPGQPPKVLIYAASNLESGIPARFSGSGSGTDFTLTINSLEAEDAATYYCQQSNEDPWTFGGGTKVEIK | 0.04 fold
